Values of other authors as cited in paper PMC4857727.

Experiments:
[1] = biological target: Syndecan peptide (Homo sapiens) (UniProt P31431)
[2] = biological target: IL5R-alpha peptide (Homo sapiens) (UniProt Q01344)
Chain of UniProt Q01344 (Q01344 21-420): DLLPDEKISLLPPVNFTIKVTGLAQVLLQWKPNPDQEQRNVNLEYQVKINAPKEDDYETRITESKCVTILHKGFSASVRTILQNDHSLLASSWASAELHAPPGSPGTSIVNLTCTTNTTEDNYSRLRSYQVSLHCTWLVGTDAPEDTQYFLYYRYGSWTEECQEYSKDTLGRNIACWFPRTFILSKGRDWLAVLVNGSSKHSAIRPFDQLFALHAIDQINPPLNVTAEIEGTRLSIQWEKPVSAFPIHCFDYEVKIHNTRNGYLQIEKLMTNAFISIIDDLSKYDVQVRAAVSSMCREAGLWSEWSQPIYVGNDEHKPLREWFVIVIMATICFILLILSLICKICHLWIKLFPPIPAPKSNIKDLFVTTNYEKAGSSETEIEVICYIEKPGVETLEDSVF

Chain of UniProt P31431 (P31431 19-198): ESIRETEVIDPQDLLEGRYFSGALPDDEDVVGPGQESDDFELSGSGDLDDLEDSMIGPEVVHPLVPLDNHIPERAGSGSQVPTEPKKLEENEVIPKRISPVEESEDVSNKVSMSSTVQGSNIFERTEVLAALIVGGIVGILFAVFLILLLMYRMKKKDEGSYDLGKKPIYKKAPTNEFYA

In the case of Syntenin PDZ2 (from UniProt O00560), the Kd [1] is given as 2.9 µM and the Kd [2] is given as 43.8 µM.
